Here are results for 21 sequences from the DeepSol protein solubility set.

The data set is described as follows: soluble on expression in E. coli; label from the status in PepcDB or PDB records.
On to “MVGEGEIELRNELPGGEVHAAWHLRYAGHDFFVKCDEREMLRGFTAEADQLELLSRSKTVVVPKVWAVGSDRDYSFLVMDYLSPRPLDAHNAFILGQQLARLHQWSDQPQFGLDFDNALSTTPQPNTWQRRWSTFFAEQRIGWQLELAAEKGITFGNIDAIVEHVQQRLASHQPQPSLLHGDLWSANCALGPDGPYIFDPACYWGDRECDLAMLPLHTDQPPQIYDGYQSVSPLPLDFLDRQPIYQLYTLLNRARLFGGQHLATAQKAMDRLLAVLEHHHHHH”, for which the “soluble on expression in E. coli” value is “not soluble”.

For “MVGPLKIGRHEVKYPLIQGGMGVRISGGRLAGHVAKCGGVGLVAAAGISLSGLFTGANYLQSNPEAMRKELRKAYAIAPDGVIGVNIMVALTDYEELVRASIDGGAKVIVCGAGLPLTLPELTAHAPEVALVPIVSSVRAAQLIAKKWEKGFGRLPDAVVVEDPDTAGGHLGEKLENIGAGTYDQYGTIRAIKAYFLEEYGVSVPVVAAGGIWDRDDVLHAFEQGADAVQMASRFVPTVECDADDAYKQAYLECRREDIGLIMSPAGLPGRAILRNQDQIVLHDQLKGVACGNGCLKKCSYKETGERFCIVNALDRAQRGDVETGLVFCGTNAWKADRITTVQEIFDELFAVGEESEKAA”, the “soluble on expression in E. coli” value is on record as “not soluble”. For “MVGRRDGPFKPPGGLLRAFLVRVDAGHLRTVSYSTVLASTSAHSSALPPRRSPPMNAPAKSLLDIDAFPLVQVREMPRELADVERWLEEVEALLAVERDFALVYPPLPQETAEGDQQARKRLVLWLKENRQRFVEHCRGILLSANGQPDNLADLQQLAPVLQAVYGPPVSVAPDLASARGMAKALLSGPATGMNW”, the “soluble on expression in E. coli” value is listed as “not soluble”. In the case of “MVHIKKGELTQEEKELLEVIGKGTVQEAGTLLSSKNVRVNCLDENGMTPLMHAAYKGKLDMCKLLLRHGADVNCHQHEHGYTALMFAALSGNKDITWVMLEAGAETDVVNSVGRTAAQMAAFVGQHDCVTIINNFFPRERLDYYTKPQGLDKEPKLPPKLAGPLHKIITTTNLHPVKIVMLVNENPLLTEEAALNKCYRVMDLICEKCMKQRDMNEVLAMKMHYISCIFQKCINFLKDGENKLDTLIKSLLKGRASDGFPVYQEKIIRESIRKFPYCEATLLQQLVRSIAPVEIGSDPTAFSVLTQAITGQVGFVDVEFCTTCGEKGASKRCSVCKMVIYCDQTCQKTHWFTHKKICKNLKDIYEKQQLEAAKEKRQEENHGKLDVNSNCVNEEQPEAEVGISQKDSNPEDSGEGKKESLESEAELEGLQDAPAGPQVSEE”, the “soluble on expression in E. coli” value is given as “soluble”. In the case of “MVHWADYIADKIIRERGEKEKYVVESGITPSGYVHVGNFRELFTAYIVGHALRDKGYEVRHIHMWDDYDRFRKVPRNVPQEWKDYLGMPISEVPDPWGCHESYAEHFMRKFEEEVEKLGIEVDLLYASELYKRGEYSEEIRLAFEKRDKIMEILNKYREIAKQPPLPENWWPAMVYCPEHRREAEIIEWDGGWKVKYKCPEGHEGWVDIRSGNVKLRWRVDWPMRWSHFGVDFEPAGKDHLVAGSSYDTGKEIIKEVYGKEAPLSLMYEFVGIKGQKGKMSGSKGNVILLSDLYEVLEPGLVRFIYARHRPNKEIKIDLGLGILNLYDEFEKVERIYFGVEGGKGDDEELRRTYELSMPKKPERLVAQAPFRFLAVLVQLPHLTEEDIINVLIKQGHIPRDLSKEDVERVKLRINLARNWVKKYAPEDVKFSILEKPPEVEVSEDVREAMNEVAEWLENHEEFSVEEFNNILFEVAKRRGISSREWFSTLYRLFIGKERGPRLASFLASLDRSFVIKRLRLEG”, the “soluble on expression in E. coli” value is on record as “soluble”. Take “MVIEMEPDTHIISALVEHKPGVLQRVAGLFTRRGFNIENITVGESETPGIARMTIIARGDDRVLEQITKQLNKLIDVIKVRDLEPAATVKRELCMVKVHAPSESERSEIIQYTNIFRGRIVDVSPDALTVEVTGDSEKIDAFLELLRNFGIKELARTGPTAMSRGSRTM”: the “soluble on expression in E. coli” value is “not soluble”.

In the case of “MVIEVPQTERVNDVDVFLSTQDGQIQRPKGPNCRHPVRQKCTNCLPVDPFDEEYLKEKDIKHMSFHAHVRKLLGSQGKGTTLKKPLENFRCSLKPNCDAHKPFPKGICTKCKPQVVTLNRQKFRHVDNIQIENQELVNQFLDYWRLSGHQRVGFLIGQYQPHLEVPLGIKATVAAIYEPPQHCREDGIEFLEDKNQKTIDNLLEMLGLQRVGWIFTDCWTANSAEGTVHYTRHKDSFFLSAEECITAAMLQNQHPNITEYSMDRHYGSKFVTVVASGDESMHVNFHGYQVSNQCAAMVEADILCPTLYTPELAYVRETPLSEEHYITDVQFSMKNEYGAEVMKNGRPLPVEYLLVDVPAGMPKEPHYTFHVGTSNKSKSAKFNVENRQAIGQLQGGANLIQYSSEFSTNQFLEQATNFHFLLYLVTNDQVQISDEWMKRLCDAVKAQDRGTAMEWAQECEDWHQLMALAHANGGSGNDDIPVIPNGDPFSGSSSGGSRGAVWSCGHCTFQNEAGRQDCSMCGLPAAD”, the “soluble on expression in E. coli” value was “not soluble”. For the sequence “MVIMLATMLHSIAVGNLLPSYVKTICVDMNPSTVTKLMDRGTHQAIGVVTDVGLFLPLLYLKIKEIEAKE”, the “soluble on expression in E. coli” value was “not soluble”. Take “MVIVGGQDRSISTRQGAAMTDTPPPETDAAPEVPGAAPGKTLTPAARRALEEAAARRAAEAALSLPPEEGGRDGPEPTRFGDWEKKGVAVDFLEHHHHHH”: the “soluble on expression in E. coli” value is listed as “not soluble”.

As for “MVKETKLYDLLGVSPSANEQELKKGYRKAALKYHPDKPTGDTEKFKEISEAFEILNDPQKREIYDQYGLEAARSGGPSFGPGGPGGAGG”, the “soluble on expression in E. coli” value is recorded as “soluble”. As to “MVKKEFQLTHIFKNVSKLKVGKFAWTPMKEHFNVSWQIAITRTHFRNEEKMEIQVGCQKLTKDDVPAGVEGEFTIKLTNSSGISTSKSSRLKLVKNGGLGFLKIVWKVMQDEYLIDDSIIIEATVKITKMTGISKKPLKCFDQSKEKFSDVILAVGDQKFFVLRKFLASHSTFFESRFLGNFDEADKSEVTLRDIDSADFQNLLEVLYGEPAIDDDTVDGILHLAHMYDIPLPIRKCEEFLIEVSEKSMKDQLVLAKQYQLEKLKVKKKT”, the “soluble on expression in E. coli” value is listed as “not soluble”. Take “MVKLDDKNKKFKGKKKVKNVLEKKAKGLKLNKVDRKRIVKIEEKAALKSKVDKAVKDELERLKKSSSTSVFDNDGTRDSLCSESSFGSQPAPKKKSKKVLFSGELEHVKVFDKRVQDLQIKPSEASPGRGILRSPLDKKVKKLAKVKTVKVAQEEEEEHSAPPKKKVKVNAEKAVASEPADDENLESVDEQAGGDESHIDIPTLKRKRVAIQVTKSVKEQLLNMPRKERKAFLKELKLKRKPEGARAQKCKELWEKIRMGKTPKAEKDTAVHELYGLVKGHAAKLIYAHDTSRVIECLVATEREGIINNLFNELTPEIVRMSKNVYSKFFVKKMLKNGTKEQRDIIINAFRGHAPTLLRIKHAAEVLEYAYNDFANAHQRYNIITEFYGKEFILFREDNIRSLTEILAEKPEKKVVILKHLDEVIGAVNEKETLRLSILHKLMLDFFDNCDEEKKINLLDSLKDKIPEFIHTPDGAKLAIKLIWFAPVKERKLIVKNFKDLSVKAAMEHYGHRVLLALFDTVDDTVLLNKVIVSELANEMKKLIEDDWGEKVIHYLVHPRDGRGIDKREITFLAEGDSNPHSKKTQKDRYGQLYAGITENLYPYLAANFEELVFEANKSKFVAACLETTSSFDLFDRQVPAEARKSCNQAIVELAKKDFVPMDQEGFHIIEHQSGNFILMAVMRCDAALQEDERLSVALAEGLTSKQLGSWVTCNRGCHVLLKMLQVGGPKVIEKLKASISRKHLDGYNSKGANLLKAQLDGNVKK”: the “soluble on expression in E. coli” value is “soluble”. The entry for “MVKLMEVYEGKAKKMIPIDDDKLIMEFKDDATAFDGTKKARFKGKGWLNAQLSVIFFKLLEEHGIKTHFIGVAGGNRLIVEKLDMYPLEVVVRNVVAGSLKKRLPLPEGYELPEPIVELYYKNDELHDPMINYYHAKVLGISLDEIKKIEEIALKVNEILKDYLAKKGIILVDFKLEFGKDKNGDIVLADEISPDTCRFWDAKTKRSLDKDVFRFDKGDLIEAYKEIYERITGEKPEF” is “soluble”; for “MVKSFLMLGQSNMAGRGFINEVPMIYNERIQMLRNGRWQMMTEPINYDRPVSGISLAGSFADAWSQKNQEDIIGLIPCAEGGSSIDEWALDGVLFRHALTEAKFAMESSELTGILWHQGESDSLNGNYKVYYKKLLLIIEALRKELNVPDIPIIIGGLGDFLGKERFGKGCTEYNFINKELQKFAFEQDNCYFVTASGLTCNPDGIHIDAISQRKFGLRYFEAFFNRKHVLEPLINENELLNLNYARTHTKAEKIYIKSMDFALGKISYDEFTSELMKINNDLEHHHHHH” it is “soluble”; for “MVKVYIHDNKVDSDYRAPHNSGTELSLDELAKLGVIYKYCANEEEVNEIARQREYKNRDVVNICEGSFKSEAEFNEKLATFYQEHLHEDEEIRYCLEGAGYFDVRDASTPENWIRCLVESGDLLILPPGIYHRFTLTTSNHIKALRLFKDEPKWQAINRSNQADSLPVRKDYIALINQY” it is “soluble”. Turning to “MVLDRQHLGVTKSRCIVWGVAFLSDGTVISVDSVGKVQLWDSATGTLVKSHLVANADVQSIAVADQEDSFVVGTAEGTVFHFQLVSMTSNSSEKQWVRTKPFQHHTHDVRAVAHSPTALISGGTDTHLVIRPLMERVEVKNYDAALRKITFPHRRLISCSKRRQLLLFQFAHHLELWRLGSTSATGKNGDTLPLSKNADHLLHLKTKGPENIICSCVSPCGSWIAYSTASRFFLYRLKYERDNISLQRVSKLPSFLRSALHILFSEDSTKLLVASNQGSLHIVHLSEGSFKHLHTFQPQSGTVEAMCLLAVSPDGNWLAASGTSAGVHVYDLHHLKLHCTVPAYNFPVTALAIAPNTNNLVIAHSDQQVFEFSIPEKQYTEWSRSLQKQGFHQLWLQRDTPITHISFHPKRPMHILLHDAYMFCIIDKSLPLPNEKTVLYNPLPPKNESDVFLRRTTHGFKMSKIYKPLLFMDLLDERTLVAVERPLDDIIAQLPPPIKKKKFGT”, the “soluble on expression in E. coli” value is given as “not soluble”. In the case of “MVLILNGPNLNLLGRREPEVYGRTTLEELEALCEAWGAELGLGVVFRQTNYEGQLIEWVQQAHQEGFLAIVLNPGALTHYSYALLDAIRAQPLPVVEVHLTNLHAREEFRRHSVTAPACRGIVSGFGPLSYKLALVYLAETLEVGGEGF”, the “soluble on expression in E. coli” value was “soluble”. In the case of “MVLKSKGSVLDLEHDNQTLKDYISVFERNKMRLTQSRLMLLQCLVQHRDWHTLAELKHHLEQNQQRTTLASIYNNLKIFAKLKLINIFVDTNRFETYYCLRHENHKHIYFFDENQRKFLTLPLQDKEALSLIGHKSKHGKIKLNDFYIVASGTLEDDQ”, the “soluble on expression in E. coli” value was “soluble”. On to “MVLSVADAKKLTVPRLKEELASRGLDNTGNKPELLARLTESIEQAADELLGDAGITSDTHLLSDDILNDDILDAPSVGDESEADKLLGSVDGAEEHKTDKSEGEEKHEVHLIDKKIDEVTAETDKRARAIRFGLPVTAEDLGSDGAKAARAKRFDLPEDSKRLTSNDAKASRAERFGITPKTPAADDKLAARAARFGIPVGGAASASASKNAPNSEGKAAKLAARAKRFGGEIDDEEMEAKKKARMERFGTSN”, for which the “soluble on expression in E. coli” value is “not soluble”. For the sequence “MVMVNFVKAGCSRWRCMLAKDTCIFTTFQMVPVSLCCCSYDRCNVGGNPVYSDNPKQIQNGGGNSGNWNSGGNNNGASGGSWGNGNANNNNNNNNGGSNNNGWGNNNDWSSNYNYGGSNAANEPKMTKQTVAGDDSWNKNKWTNKQVEDMFKKSIDDRGDEIQLEDDFKKIDKNYKTQSVPQESLRTLSARKEVEKIPFVAGKSSGVGAKTTASPTTGKSKEIQL”, the “soluble on expression in E. coli” value was “not soluble”. As to “MVMWVFGYGSLVWNPGFHYDEKVLGFIKGYKRVFDLACIDHRGTPEHPARTCTLEKAEEAICWGTAFCVRGGPEKERLAMEEDDPLKPAVTGVIVFTSTPDKVSNKYYLGPAPLEDMARFLSSHLAVILYIQRQIATANGPCGNNRDYLFLLEKAMHDIGFVVKGSDLDGFKRDIVFDVLSHFLFHTGHEEDYVIELANEVRKVLAESSTKKVTPVKESRASRVANKSKNNVPTAHQILPHHPEAVATTI”, the “soluble on expression in E. coli” value was “soluble”.
